The source of these data is US7351690B2, “Knockout identification of target-specific sites in peptides” (priority 2000, dated 2008).

The % Inhibition is the relative decrease from the control value, in per cent.

In one assay the target is T1, MC1-R (Mus musculus, UniProt Q01727).
T1 construct: membranes prepared from hMC3-R, hMC4-R, hMC5-R, and B-16 mouse melanoma cells (containing MC1-R); endogenous in cells; host or cells: B-16 mouse melanoma cells (membranes)
The assay is described as follows: competitive inhibition binding assay, 125I-NDP-alpha-MSH, B-16 mouse melanoma cell membranes. The following applies: 1 μM test peptide; 0.4 nM 125I-NDP-alpha-MSH; B-16 mouse melanoma cell membranes. On the procedure:
(§1) The competitive inhibition binding assay was conducted using membranes prepared from hMC3-R, hMC4-R, hMC5-R, and B-16 mouse melanoma cells (containing MC1-R) using 0.4 nM ^125I-NDP-alpha-MSH (New England Nuclear, Boston, Mass., USA) in 50 mM HEPES buffer containing 1 mM MgCl2, 2 mM CaCl2, and 5 mM KCl, at pH 7.2. The assay tube also contained a chosen concentration of the test peptide of this invention complexed to a rhenium metal ion, typically at a 1 μM concentration, for determining its efficacy in inhibiting the binding of ^125I-NDP-alpha-MSH to its receptor. Non-specific binding was measured by complete inhibition of binding of ^125I-NDP-alpha-MSH in the assay with the presence of 1 μM alpha-MSH. Incubation was for 90 minutes at room temperature, after which the assay mixture was filtered and the membranes washed three times with ice cold buffer. The filter was dried and counted in a gamma counter for remaining radioactivity bound to the membranes. 100% specific binding was defined as the difference in radioactivity (cpm) bound to cell membranes in the absence and presence of 1 μM alpha-MSH. The cpm obtained in presence of test compounds were normalized with respect to 100% specific binding to determine the percent inhibition of ^125I-NDP-alpha MSH binding. Each assay was conducted in triplicate and the actual mean valves are described.

Another assay concerns the target T2, hMC3-R (Homo sapiens, UniProt P41968).
T2 construct: expressed in transfected cells
Kind of assay: competitive inhibition binding assay, 125I-NDP-alpha-MSH, hMC3-R membranes. The following applies: 1 μM test peptide; 0.4 nM 125I-NDP-alpha-MSH; hMC3-R membranes. The procedure:
as §1

Another assay has as its target T3, hMC4-R (Homo sapiens, UniProt P32245).
T3 construct: expressed in transfected cells
The assay is described as follows: competitive inhibition binding assay, 125I-NDP-alpha-MSH, hMC4-R membranes. The following applies: 1 μM test peptide; 0.4 nM 125I-NDP-alpha-MSH; hMC4-R membranes. The procedure:
as §1

A further assay addresses T4, hMC5-R (Homo sapiens, UniProt P33032).
T4 construct: expressed in transfected cells
Kind of assay: competitive inhibition binding assay, 125I-NDP-alpha-MSH, hMC5-R membranes. The following applies: 1 μM test peptide; 0.4 nM 125I-NDP-alpha-MSH; hMC5-R membranes. On the procedure: as §1

In the next assay the test system is bombesin receptor. Kind of assay: competitive binding assay, 125I-Bombesin, rat brain membranes. The following applies: inhibition of 0.01 nM 125I-Bombesin binding; rat brain membranes; test concentration not given. On the procedure: Rat brain membranes were utilized as the source of bombesin receptor. The competitive binding assay was performed using a procedure as described by Moody T W, Perk C B, Rivier J, Brown, M R. (Proc Natl Acad Sci USA. 75:5372-5376, […]) and adapted to a 96 well format. An aliquot of membranes taken in assay buffer (50 mM Tris and HCl, pH 7.4 containing 1 mg/mL BSA and 2 μg/mL bacitracin) was incubated with 0.01 nM of ^125I-Bombesin with or without varying concentrations of the test compound for 60 min at 4° C. The incubation was terminated by rapid filtration of the assay mixture, followed by washing the filters with ice-cold buffer. The filters were dried and counted in a gamma counter for retained radioactivity. Non-specific binding was measured by including 1 μM Bombesin in the assay tube. The assay was performed in triplicate and results calculated to determine percentage inhibition of the ^125I-Bombesin binding to its receptors by a test compound. The parent polypeptide is shown in Table 6, with metallopeptides having Cys inserted as shown.

Square brackets hold non-standard residues; d marks the D form. Ends that are not written are not given here. Nle = CCCC[C@H](N)C(=O)O

T1 sequence (Q01727 whole entry): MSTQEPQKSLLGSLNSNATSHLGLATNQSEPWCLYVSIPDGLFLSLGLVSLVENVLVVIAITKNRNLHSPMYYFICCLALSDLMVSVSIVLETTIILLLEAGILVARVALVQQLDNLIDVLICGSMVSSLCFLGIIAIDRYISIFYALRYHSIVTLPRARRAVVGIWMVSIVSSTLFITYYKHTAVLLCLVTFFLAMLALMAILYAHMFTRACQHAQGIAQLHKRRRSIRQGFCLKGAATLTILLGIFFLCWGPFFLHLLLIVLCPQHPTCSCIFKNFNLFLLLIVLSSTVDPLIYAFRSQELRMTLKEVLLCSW
T3 sequence (P32245 whole entry): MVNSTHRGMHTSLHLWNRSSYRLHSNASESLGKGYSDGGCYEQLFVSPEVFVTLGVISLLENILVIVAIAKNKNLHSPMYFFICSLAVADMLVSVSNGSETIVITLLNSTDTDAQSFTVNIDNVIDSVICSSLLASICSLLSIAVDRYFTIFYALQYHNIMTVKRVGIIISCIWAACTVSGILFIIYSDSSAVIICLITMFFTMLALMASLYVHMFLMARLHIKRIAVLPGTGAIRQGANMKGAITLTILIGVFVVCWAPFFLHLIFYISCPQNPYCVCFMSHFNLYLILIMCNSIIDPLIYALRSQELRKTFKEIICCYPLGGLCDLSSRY
T4 sequence (P33032 whole entry): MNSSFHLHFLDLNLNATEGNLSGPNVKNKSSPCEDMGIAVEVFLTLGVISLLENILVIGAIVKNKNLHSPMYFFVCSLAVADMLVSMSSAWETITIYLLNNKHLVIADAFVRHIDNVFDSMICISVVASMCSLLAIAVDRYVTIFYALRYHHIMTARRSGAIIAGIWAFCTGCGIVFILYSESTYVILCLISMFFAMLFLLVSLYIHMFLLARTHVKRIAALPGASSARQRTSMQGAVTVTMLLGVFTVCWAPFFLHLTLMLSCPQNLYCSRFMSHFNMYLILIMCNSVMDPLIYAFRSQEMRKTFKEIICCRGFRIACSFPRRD
T2 sequence (P41968 whole entry): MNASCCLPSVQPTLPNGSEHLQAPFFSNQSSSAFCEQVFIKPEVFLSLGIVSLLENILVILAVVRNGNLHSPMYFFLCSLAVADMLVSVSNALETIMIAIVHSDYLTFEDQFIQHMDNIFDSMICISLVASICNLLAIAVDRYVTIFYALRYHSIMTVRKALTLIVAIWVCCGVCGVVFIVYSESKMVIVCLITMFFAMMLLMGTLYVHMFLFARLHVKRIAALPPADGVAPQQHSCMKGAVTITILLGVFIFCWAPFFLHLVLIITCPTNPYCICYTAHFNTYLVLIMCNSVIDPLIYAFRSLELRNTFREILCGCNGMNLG

In the case of “Ac-Ser-Tyr-Cys-Ser-Nle-Glu-His-Phe-Arg-Trp-Gly-Lys-Pro-Val-NH2 (chain 1 Ac-SYCS[Nle]; chain 2 EHFRWGKPV-NH2; not fully specified (bridges); printed as Ac-Ser-Tyr-Cys-Ser-Nle-Glu-His-Phe-Arg-Trp-Gly-Lys-Pro-Val-NH2; also: oxorhenium(V) N3S1 chelate (Re(V)=O)) [1-12]”, the “% Inhibition at 1 μM at Melanocortin Receptor 1” value with MC1-R was determined as 96%. For the same substance, the “% Inhibition at 1 μM at Melanocortin Receptor 3” value with hMC3-R was 15%. Besides, the “% Inhibition at 1 μM at Melanocortin Receptor 4” value in the assay with hMC4-R came to 26%. In addition, in the assay with hMC5-R, the “% Inhibition at 1 μM at Melanocortin Receptor 5” value was 19%.

For “Ac-Ser-Tyr-D-Cys-Ser-Nle-Glu-His-Phe-Arg-Trp-Gly-Lys-Pro-Val-NH2 (Ac-SY[dC]S[Nle]EHFRWGKPV-NH2; not fully specified (bridges); printed as Ac-Ser-Tyr-D-Cys-Ser-Nle-Glu-His-Phe-Arg-Trp-Gly-Lys-Pro-Val-NH2; numbers in words are those of the source; also: oxorhenium(V) N3S1 chelate (Re(V)=O)) [2-12]”, in the assay with MC1-R, the “% Inhibition at 1 μM at Melanocortin Receptor 1” value is recorded as 97%. Also, the “% Inhibition at 1 μM at Melanocortin Receptor 3” value in the assay with hMC3-R is given as 21%. The “% Inhibition at 1 μM at Melanocortin Receptor 4” value with hMC4-R is 47%. Further, in the assay with hMC5-R, the “% Inhibition at 1 μM at Melanocortin Receptor 5” value is reported as 17%.

On to “Ac-Ser-Tyr-Ser-Cys-Nle-Glu-His-Phe-Arg-Trp-Gly-Lys-Pro-Val-NH2 (chain 1 Ac-SYSC[Nle]; chain 2 EHFRWGKPV-NH2; not fully specified (bridges); printed as Ac-Ser-Tyr-Ser-Cys-Nle-Glu-His-Phe-Arg-Trp-Gly-Lys-Pro-Val-NH2; also: oxorhenium(V) N3S1 chelate (Re(V)=O)) [1-11]”, for which the “% Inhibition at 1 μM at Melanocortin Receptor 1” value with MC1-R turned out to be 95%. Also, the “% Inhibition at 1 μM at Melanocortin Receptor 3” value with hMC3-R came to 18%. Besides, in the assay with hMC4-R, the “% Inhibition at 1 μM at Melanocortin Receptor 4” value turned out to be 21%. Also, the “% Inhibition at 1 μM at Melanocortin Receptor 5” value in the assay with hMC5-R is reported as 6%.

In the case of “Ac-Ser-Tyr-Ser-D-Cys-Nle-Glu-His-Phe-Arg-Trp-Gly-Lys-Pro-Val-NH2 (Ac-SYS[dC][Nle]EHFRWGKPV-NH2; not fully specified (bridges); printed as Ac-Ser-Tyr-Ser-D-Cys-Nle-Glu-His-Phe-Arg-Trp-Gly-Lys-Pro-Val-NH2; numbers in words are those of the source; also: oxorhenium(V) N3S1 chelate (Re(V)=O)) [2-11]”, the “% Inhibition at 1 μM at Melanocortin Receptor 1” value with MC1-R worked out at 95%. Moreover, the “% Inhibition at 1 μM at Melanocortin Receptor 3” value in the assay with hMC3-R came out at 5%. Moreover, the “% Inhibition at 1 μM at Melanocortin Receptor 4” value with hMC4-R is recorded as 37%. Moreover, the “% Inhibition at 1 μM at Melanocortin Receptor 5” value with hMC5-R is reported as 0%.

For the substance “Trp-Ala-Val-Cys-His-Leu-NH2 (WAVCHL-NH2; not fully specified (bridges); printed as Trp-Ala-Val-Cys-His-Leu-NH2; also: oxorhenium(V) N3S1 chelate (Re=O) with Cys) [11-8]”, the “% Inhibition” value in the assay on bombesin receptor is 13%.

On to “Trp-Ala-Val-Cys-His-NH2 (WAVCH-NH2; not fully specified (bridges); printed as Trp-Ala-Val-Cys-His-NH2; also: oxorhenium(V) N3S1 chelate (Re=O) with Cys) [11-11]”, for which the “% Inhibition” value in the assay with bombesin receptor is −1%.

For the substance “Trp-Ala-Val-Cys-NH2 (WAVC-NH2; not fully specified (bridges); printed as Trp-Ala-Val-Cys-NH2; also: oxorhenium(V) N3S1 chelate (Re=O) with Cys) [11-14]”, the “% Inhibition” value in the assay on bombesin receptor is recorded as 8%.

For the substance [dF]QWA[dV]CHLL-NH2 [10-3], the “% Inhibition” value in the assay on bombesin receptor was 7%.
